Assay results as given in patent publication US20210403546A1 (LUDWIG INSTITUTE FOR CANCER RESEARCH, published 2021).

Columns and labels:
human recombinant TGF-b1 [1] = biological target: T1, human recombinant TGF-b1 (human, UniProt P01137 279-390); test: phage ELISA on plate-coated TGF-b1, anti-fd detection
T1 construct: also called TGF-β1; hTGF-β1
Method: (§1) To perform the ELISA a 96-well maxisorp Nunc-immunoplate (Thermo Scientific, cat. #2022-10) was coated with 50 μl/well of human recombinant TGF-b1 (Acrobiosystems, cat. #TG1-H4212), TGF-b2 (R&D Systems, cat. #302-B2-010) and human recombinant TGF-b3 (Shenandoah Biotechnology, cat. #100-109) at 500 ng/ml in PBS at 4° C. overnight. Wells were blocked by the direct addition of 230 μl of block solution (5% skimmed milk/0.05% Tween20 in PBS) without first washing the plate. Blocking was carried out for 45 min with gentle agitation. Concurrently, the bacterial cultures containing the expressed scFv and the rescued phage were blocked by the direct addition of 120 μl of block solution. The blocked maxisorp plate was washed 3× with PBST (PBS+0.1% Tween20) before applying 150 μl of blocked scFv or phage culture to the wells. Incubation was performed for 1 h at room temperature with gentle agitation before washing of the wells with 4×PBST.
For the phage ELISA, 100 μl of primary rabbit anti-fd bacteriophage Ab (Sigma, cat. #B7786) diluted 1/1000 in PBS+1% BSA was added to wells followed by a 1 h incubation at room temperature with gentle agitation. The plate was washed 4× with PBST before the addition of 100 μl of secondary mouse anti-rabbit IgG (Y-chain specific) HRP conjugate (Sigma, cat. #A1949) diluted 1/15000 in PBS+1% BSA. […]

human recombinant TGF-b1 [2] = biological target: T1, human recombinant TGF-b1; test: SPR (Biacore T200), 10 nM Fab over amine-coupled TGFb1 (492 RUs); reference of the ranking
Method: FIG. 27 provides Biacore analysis of the new mutant variant antibodies and compares the new mutants versus parent variant 13A1-2F and versus mu13A1. Selected variants have different monovalent (huIgG1 stabilized Fab format). Biacore binding kinetics, range from lower to higher than the parental mouse 13A1 (mu13A1, hybrid with mouse VK/VH and huCK/huCH1). The data presented is ka, kd and apparent KD. TGFb1 (chip): 492 Rus, Fabs: 10 nM, Flow rate: 30 ul/min, Contact time: 510s, Diss. Time: 600s. Quality: Chi(2)<=1% Rmax and U score <=5. Data is presented for mutant variant antibodies 13A1_AF, 13A1_AG, 13A1_AH, 13A1_BF, 13A1_BG, 13A1_BH, 13A1_CF, 13A1_CG, 13A1_CH, 13A1_DF, 13A1_DG, 13A1_DH, 13A1_EF, 13A1_EG and 13A1_EH.
SPR binding analysis of Fabs: Experiments were performed using the Biacore T200 equipped with the Series S sensor chip CMS (GE Healthcare, cat. #BR-1005-30). The instrument temperature was set at 25° C. for all steps in the analysis while the compartment temperature was set at 10° C. All the assays were performed using the running buffer HBS-EP+ 1×. Recombinant TGF-β1 (Biocat, cat. #TG1-H4212-50 ug-AC) was immobilized with the standard amine-coupling chemistry using a solution of the ligand at 1 ug/mL in acetate, pH 4.5. Recombinant TGF-β1 was injected for several minutes to achieve a target density of 492 RUs. […]

human recombinant TGF-b1 [3] = biological target: T1, human recombinant TGF-b1; test: ELISA, soluble scFv on plate-coated TGFb isoforms
Method: as §1
For the scFv ELISA, 100 μl of primary mouse 9E10 anti-cmyc Ab diluted 1/1000 in PBS+1% BSA was added to wells, followed by a 1 h incubation at room temperature with gentle agitation. […] The ELISA was developed by the addition of 100 μl/well of TMB substrate (ThermoFischer Scientific, cat. #34021), stabilized with 50 μl/well of stop solution (2N sulfuric acid) and absorbance signals read at 450 nm and 620 nm.

human recombinant TGF-b1 [4] = biological target: T1, human recombinant TGF-b1; test: TGFb specificity ELISA, HEK293-6E supernatant

T1 sequence (P01137 279-390 limits assumed): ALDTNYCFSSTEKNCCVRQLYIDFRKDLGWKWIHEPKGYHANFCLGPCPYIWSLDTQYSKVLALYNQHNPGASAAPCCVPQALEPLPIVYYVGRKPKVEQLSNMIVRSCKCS

B1: LCR13A1 Phage (murine 13A1 scFv fused to pIII on filamentous phage) (scFv)
scFv: DIVLTQSPASLAVSLGQRATISCRASESVDNYGISFLNWFQQKPGQPPKLLIYAASNQGSGVPARFSGSGSGTDFSLNIHPMEEDDTGMYFCQQSKEVPRTFGGGTKLEIKRTVAARQEGGSGEGGSGESNAAAEVQLQQSGTVLARPGASVKMSCKTSGYTFTNYWMHWVRQRPGQGLEWIGTIYPGNSDTNYNQKFKDKAKLTAVTSATTAYMELSSLTNEDSAVYFCTREDSRSLYYNGWDYFDYWGQGTLVTVSSASTKAS
notes: not shown: pIII coat protein of filamentous bacteriophage (fusion partner from phagemid pCHV101)
binding result (human recombinant TGF-b1 [1]): binds

B2: 13A1 mouse parental hybrid stabilized Fab (mu13A1) (Fab, V domains shown)
VH: EVQLQQSGTVLARPGASVKMSCKTSGYTFTNYWMHWVRQRPGQGLEWIGTIYPGNSDTNYNQKFKDKAKLTAVTSATTAYMELSSLTNEDSAVYFCTREDSRSLYYNGWDYFDYWGQGTTLTVSS
VL: not shown
notes: also called parental mouse Fab [chimeric, mVHhCH1/mVKhCK]; LCR13A1_VK(murine) + LCR13A1_VH(murine)
binding result (human recombinant TGF-b1 [2]): binds

B3: 13A1_GLv1_scFv (CDR-grafted scFv, IGKV7-3*01/IGHV1-46*01) (scFv)
scFv: DIVLTQSPASLAVSPGQRATITCRASESVDNYGISFLNWYQQKPGQPPKLLIYAASNQGSGVPARFSGSGSGTDFTLTINPVEADDTANYYCQQSKEVPRTFGGGTKLEIKRTVAARQEGGSGEGGSGESNAAAQVQLVQSGAEVKKPGASVKVSCKASGYTFTNYWMHWVRQAPGQGLEWIGTIYPGNSDTNYNQKFKGRVTMTRDTSTSTVYMELSSLRSEDTAVYYCTREDSRSLYYNGWDYFDYWGQGTLVTVSSASTKAS
notes: Orientation VK-linker-VH; expressed in E. coli from pCHV101; also called LCR13A1_Glv1 scFv
binding result (human recombinant TGF-b1 [3]): binds

B4: 13A1_Glv1 (graft) human IgG1 (antibody, V domains shown)
VH: QVQLVQSGAEVKKPGASVKVSCKASGYTFTNYWMHWVRQAPGQGLEWIGTIYPGNSDTNYNQKFKGRVTMTRDTSTSTVYMELSSLRSEDTAVYYCTREDSRSLYYNGWDYFDYWGQGTLVTVSS
VL: DIVLTQSPASLAVSPGQRATITCRASESVDNYGISFLNWYQQKPGQPPKLLIYAASNQGSGVPARFSGSGSGTDFTLTINPVEADDTANYYCQQSKEVPRTFGGGTKVEIK
notes: also called LCR13A1_GLv1; grafted human IgG1 13A1
binding result (human recombinant TGF-b1 [4]): binds
